Test results as given in US11879019B2, “Dual-enzyme responsive peptides” (THE REGENTS OF THE UNIVERSITY OF CALIFORNIA, priority 2016, dated 2024).
Entries after “also recorded” stand apart in the source; their conditions may differ. Like-named read-outs stand apart in the source and are kept apart here. Square brackets hold non-standard residues; d marks the D form. Side chains are listed from the residue outwards. Peptide text beside a SMILES is read from it. * marks the point of attachment. ξ: configuration not given here. X2 = CN(CCN*)C(=S)Oc1ccc2c3c1O[C@H]1C(=O)CC[C@@]4(O)[C@@H](C2)N(CC2CC2)CC[C@]314; X1 = CN(CCN*)C(=O)Oc1ccc2c3c1OC1C(=O)CCC4(O)C(C2)N(CC2CC2)CCC314; X3 = CC(=O)N[C@@H](CCCCN*)C(=O)Nc1ccc([N+](=O)[O-])cc1; X4 = CN(CCN*)C(=O)Oc1ccc([N+](=O)[O-])cc1; Trt = c1ccc(C(c2ccccc2)(c2ccccc2)*)cc1; pNA = O=[N+]([O-])c1ccc(N*)cc1; ξF = NC(Cc1ccccc1)C(=O)O; Boc = CC(C)(C)OC(=O)*; ξK = NCCCCC(N)C(=O)O; ξC = NC(CS)C(=O)O; ξA = CC(N)C(=O)O

How the values were obtained:
caspase 3 and trypsin = assay: Caspase 3 + trypsin assay (pNA release, absorbance at 405 nm); assay type: biochemical
Description: (§1) Caspase 3 was taken directly from stock solution containing 1000 U/μL. A stock solution of trypsin was prepared by dissolving the enzyme (5 mg/ml) in 1 mM HCl. The peptide substrates were dissolved in DMSO to make 10 mM solutions. These were then diluted to 2.5 mM with pH 7.5 0.1 M HEPES containing 10 mM DTT, 2 mM EDTA, and 10% v/v glycerol. In a 96-well plate, 84 μL of buffer and 5 μL peptide were mixed together before measuring the absorbance at 405 nm to serve as a blank. 1 μL caspase-3 was added, and the plate was incubated at 23° C. for 12-24 hours and absorbance was measured again. Then, 5 μL trypsin were added to the well and absorbance measurements were taken at pre-determined time points. All conditions prepared and measured in triplicate. The same protocol was used for caspase 8 assays, adjusting peptide substrate concentration as needed.

caspase 8 and trypsin = assay: Caspase 8 + trypsin assay (pNA release, absorbance at 405 nm); assay type: biochemical; conditions: for cleavage by caspase 8 (absorbance increase): caspase 8 only, commercial single enzyme substrates
Description: as §1

trypsin and chymotrypsin [1] = assay: pNA release assay of CAAK(F)-diamino-pNA; assay type: biochemical; conditions: 2 mM, trypsin and/or chymotrypsin, 90 minutes, 37° C.
Description: A stock solution of the CAAK(F)-diamino-pNA (SEQ ID NO: 4) was prepared in dimethyl sulfoxide (DMSO) to produce a 16.0 mg/mL solution. A 7.5 mg/mL stock solution of the trypsin was prepared in 50 mM NH4HCO3 buffer (pH=8.05). A 7.5 mg/mL stock solution of chymotrypsin was prepared in 50 mM NH4HCO3 buffer (pH=8.05).
A 96 well plate was used for monitoring the solutions at 405 nm using a plate reader. 20 μL of the peptide was combined with 62.0/66.6 μL of no enzyme, trypsin only, chymotrypsin only, or with both enzymes respectively. All solutions were diluted to a total volume of 200 μL using 50 mM NH4HCO3 (pH=8.05). Blanks were prepared by combining the enzymes with DMSO/buffer and their absorbances were subtracted from the cleavage conditions. Additionally, the residual signal from the peptide in the presence of no enzymes was also used as a blank and subtracted out from enzymatic conditions.

trypsin and chymotrypsin [2] = assay: Trypsin + chymotrypsin assay (pNA release, absorbance at 405 nm); assay type: biochemical; conditions: for absorbance increase at 405 nm (pNA release): trypsin + chymotrypsin
Description: Stock solutions of enzymes were prepared by dissolving trypsin (60 mg/ml) in 1 mM HCl and chymotrypsin (60 mg/ml) in pH 7.4 0.035M HEPES+0.1M NaCl. The peptide substrate, (Ac-AAF)K-pNA, was dissolved in DMSO to make a 1 mM stock solution.
(§2) To wells in a 96-well plate, 87.5 μL pH 7.4 0.035M HEPES+0.1M NaCl and 2.5 μL peptide substrate were added. Absorbance was measured using a plate reader at 405 nm. Then, 5 μL trypsin and 5 μL chymotrypsin were added to the wells, and absorbance was measured at pre-determined time points. Absorbance values were subtracted from initial reading of only buffer and peptide. When testing only one enzyme, 5 μL buffer were added to keep total volume per well at 100 μL. All conditions prepared and measured in triplicate.
as §2, with “Stock solutions of enzymes were prepared by dissolving trypsin (60 mg/ml) in 1 mM HCl and chymotrypsin (60 mg/ml) in pH 7.4 0.035M HEPES+0.1M NaCl. The peptide substrate, (Ac-AAF)K-pNA, was dissolved in DMSO to make a 1 mM stock solution. To” for “To”, “were” for “prepared and”

papain and trypsin = assay: Papain + trypsin assay (pNA release, absorbance at 405 nm); assay type: biochemical
Description: Papain was reconstituted in deionized water at a concentration of 1 mg/ml. A stock solution of trypsin was prepared by dissolving the enzyme (10 mg/ml) in 1 mM HCl. The peptide substrate, (AcFG)K-pNA was dissolved in DMSO to make a 5 mM solution. Separately, 3M NaCl and 20 mM EDTA+50 mM cysteine (pH 6.2) solutions were prepared with deionized water. In a 96-well plate, 5 μL substrate were mixed with 45 μL NaCl and 40 μL EDTA+cysteine solutions. Absorbance was measured at 405 nm to serve as a blank. Then, 5 μL of both enzyme solutions were added, and absorbance measurements were taken at pre-determined time points. All conditions were prepared and measured in quadruplicate.

[3] = for stability of the linker: over the entire pH range
Description: The stabilities of these linkages were assessed by HPLC by monitoring the relative amount of Naltrexone versus the intact peptide-Naltrexone conjugate.

[4] = 500 μM, caspase 8 for 24 hours before adding trypsin

CC(=O)N[C@@H](CCCCNC(=O)[C@H](CC(=O)O)NC(=O)[C@H](CCC(=O)O)NC(=O)[C@@H](NC(=O)[C@H](CC(=O)O)NC(C)=O)C(C)C)C(=O)Nc1ccc([N+](=O)[O-])cc1 [(AcDVED)K-pNA] (Ac-DVED-X3)
pNA release (caspase 3 and trypsin; trypsin and caspase 3): no pNA release

CC(=O)N[C@@H](CCCCNC(=O)[C@H](CC(=O)O)NC(=O)[C@@H](NC(=O)[C@H](CCC(=O)O)NC(=O)[C@H](CC(=O)O)NC(C)=O)C(C)C)C(=O)Nc1ccc([N+](=O)[O-])cc1 [(AcDEVD)K-pNA]
absorbance increase at 405 nm (caspase 3 and trypsin; 125 μM substrate, first caspase-3 then trypsin, over 60 minutes): 0.1±0.006 AU | pNA release relative to release from commercial substrate AcDEVD-pNA (caspase 3 and trypsin; caspase 3 digestion): 83% | absorbance increase (caspase 3 and trypsin; trypsin or caspase 3 only): no absorbance increase | absorbance increase (caspase 8 and trypsin; [4]): did not result in a significant absorbance increase

AcIEPD-pNA: commercially available single enzyme caspase substrate (SEQ ID NO: 8) (Ac-IEPD-pNA; SMILES CC[C@H](C)[C@H](NC(C)=O)C(=O)N[C@@H](CCC(=O)O)C(=O)N1CCC[C@H]1C(=O)N[C@@H](CC(=O)O)C(=O)Nc1ccc([N+](=O)[O-])cc1)
cleavage by caspase 8 (absorbance increase) (caspase 8 and trypsin): cleaved as expected; also recorded: significant absorbance increase over time

CC(=O)NC(CS)C(=O)NC(C)C(=O)NC(C)C(=O)NC(CCCCNC(=O)C(N)Cc1ccccc1)C(=O)NCCN(C)C(=O)Oc1ccc([N+](=O)[O-])cc1 (stereo not shown) [CAAK(F)-diamino-pNA] (Ac-CAAK(Phe)-X4; configuration not given here)
theoretical pNA released (trypsin and chymotrypsin [1]): 55%

CC[C@H](C)[C@H](NC(C)=O)C(=O)N[C@@H](CCC(=O)O)C(=O)N1CCC[C@H]1C(=O)N[C@@H](CC(=O)O)C(=O)NCCCC[C@H](NC(C)=O)C(=O)Nc1ccc([N+](=O)[O-])cc1 [(AcIEPD)K-pNA] (Ac-IEPD-X3)
absorbance increase (caspase 8 and trypsin; [4]): did not result in a significant absorbance increase | absorbance increase (caspase 8 and trypsin; caspase 8 and trypsin, initial experiments): little to no absorbance increase

AcDEVD-pNA: commercially available single enzyme caspase substrate (SEQ ID NO: 7)
cleavage by caspase 8 (absorbance increase) (caspase 8 and trypsin): cleaved as expected; also recorded: significant absorbance increase over time

CC(=O)N[C@@H](C)C(=O)N[C@@H](C)C(=O)N[C@@H](Cc1ccccc1)C(=O)NCCCC[C@H](NC(C)=O)C(=O)Nc1ccc([N+](=O)[O-])cc1 [(AcAAF)K-pNA]
change in absorbance at 405 nm (trypsin and chymotrypsin [2]; 100 μM peptide, chymotrypsin only): no change in absorbance | absorbance increase at 405 nm (trypsin and chymotrypsin [2]; 100 μM peptide, trypsin only): 0.016±0.002 AU | absorbance increase at 405 nm (pNA release) (trypsin and chymotrypsin [2]; 100 μM substrate): 0.070±0.002 AU | absorbance increase at 405 nm (pNA release) (trypsin and chymotrypsin [2]; 200 μM substrate): 0.147±0.002 AU | absorbance increase at 405 nm (pNA release) (trypsin and chymotrypsin [2]; after five hours): 0.039±0.003 AU

CC(=O)N[C@@H](Cc1ccccc1)C(=O)NCC(=O)NCCCC[C@H](NC(C)=O)C(=O)Nc1ccc([N+](=O)[O-])cc1 [(AcFG)K-pNA]
absorbance increase (papain and trypsin; each enzyme separately (papain only or trypsin only)): no absorbance increase | pNA release (papain and trypsin; papain and trypsin, varying substrate concentrations): substrate dependent

CC(=O)NC(CS)C(=O)NC(C)C(=O)NC(C)C(=O)NC(CCCCNC(=O)C(N)Cc1ccccc1)C(=O)NCCN(C)C(=S)Oc1ccc2c3c1O[C@H]1C(=O)CC[C@@]4(O)[C@@H](C2)N(CC2CC2)CC[C@]314 (stereo partly shown) [NPT] (Ac-[ξC][ξA][ξA][ξK](ξF)-X2)
Percent Degradation, t = 0.5 hr ([3]; conjugate without pH buffer): 0.51% | Percent Degradation, t = 24 hr ([3]; conjugate without pH buffer): 2.90% | stability of the linker [3]: more stable than the carbamate linker | Percent Degradation, t = 0.5 hr ([3]; pH 2): 3.23% | Percent Degradation, t = 24 hr ([3]; pH 2): 4.10% | Percent Degradation, t = 0.5 hr ([3]; pH 4): 1.67% | Percent Degradation, t = 24 hr ([3]; pH 4): 2.04% | Percent Degradation, t = 0.5 hr ([3]; pH 7): 3.22% | Percent Degradation, t = 24 hr ([3]; pH 7): 3.59% | Percent Degradation, t = 0.5 hr ([3]; pH 9): 4.69% | Percent Degradation, t = 24 hr ([3]; pH 9): 3.37% | Percent Degradation, t = 0.5 hr ([3]; pH 12): 5.15% | Percent Degradation, t = 24 hr ([3]; pH 12): 6.72%

CC(=O)NC(CSC(c1ccccc1)(c1ccccc1)c1ccccc1)C(=O)NC(C)C(=O)NC(C)C(=O)NC(CCCCNC(=O)C(Cc1ccccc1)NC(=O)OC(C)(C)C)C(=O)NCCN(C)C(=O)Oc1ccc2c3c1OC1C(=O)CCC4(O)C(C2)N(CC2CC2)CCC314 (stereo not shown) [NPC] (Ac-C(Trt)AAK([Phe-Boc])-X1; configuration not given here)
Percent Degradation, t = 0.5 hr ([3]; conjugate without pH buffer): 0% | Percent Degradation, t = 24 hr ([3]; conjugate without pH buffer): 0% | stability of the linker [3]: very good stability | Percent Degradation, t = 0.5 hr ([3]; pH 2): 6.00% | Percent Degradation, t = 24 hr ([3]; pH 2): 12.30% | Percent Degradation, t = 0.5 hr ([3]; pH 4): 3.50% | Percent Degradation, t = 24 hr ([3]; pH 4): 2.89% | Percent Degradation, t = 0.5 hr ([3]; pH 7): 1.50% | Percent Degradation, t = 24 hr ([3]; pH 7): 3.62% | Percent Degradation, t = 0.5 hr ([3]; pH 9): 5.56% | Percent Degradation, t = 24 hr ([3]; pH 9): 5.17% | Percent Degradation, t = 0.5 hr ([3]; pH 12): 7.03% | Percent Degradation, t = 24 hr ([3]; pH 12): 6.94%
